Measurements published in PMC2704923.

Experiments:
[1] = target: H3^CATD mononucleosome, reconstituted with alpha-satellite DNA; assay: native gel or EMSA
CENP-N (Homo sapiens) = assay: EMSA
[2] = system: CENP-N R124A (Homo sapiens); assay: EMSA
[3] = system: CENP-N K15A (Homo sapiens); assay: EMSA

Chain of CENP-N (wildtype), 35S-labelled, in vitro translated (Q96H22 whole entry): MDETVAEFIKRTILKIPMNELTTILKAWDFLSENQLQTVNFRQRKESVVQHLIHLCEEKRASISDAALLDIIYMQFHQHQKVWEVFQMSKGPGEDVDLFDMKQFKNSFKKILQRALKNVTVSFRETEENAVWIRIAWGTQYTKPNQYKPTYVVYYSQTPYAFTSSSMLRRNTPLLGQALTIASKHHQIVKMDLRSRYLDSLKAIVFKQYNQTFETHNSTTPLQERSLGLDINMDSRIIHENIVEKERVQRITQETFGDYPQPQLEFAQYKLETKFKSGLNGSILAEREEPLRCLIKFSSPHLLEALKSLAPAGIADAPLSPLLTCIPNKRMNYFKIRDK

## CENP-N (wildtype), 35S-labelled, in vitro translated (from UniProt Q96H22 1-339) (natural protein)
[1]
  Kd: 0.163 µM

## H3CATD nucleosome, alpha-satellite
CENP-N (Homo sapiens)
  Kd: 0.163 µM

## CENP-A nucleosome, alpha-satellite
[2]
  Kd: 0.072 µM
[3]
  Kd: 0.297 µM
